# Experimental data: patent publication US10919943B2, “Mutant proteins enabling agrochemical control of plant gene expression” (The Regents of the University of California, priority 2016, dated 2021)
# Changes are numbered by the printed parent chain. In names and notes the source's numbering stands.
# B1: T156L: PYR1 mutant (protein, UniProt O49686 1-191, looked up, variant T156L)
# Abscisic acid receptor PYR1: MPSELTPEERSELKNSIAEFHTYQLDPGSCSSLHAQRIHAPPELVWSIVRRFDKPQTYKHFIKSCSVEQNFEMRVGCTRDVIVISGLPANTSTERLDILDDERRVTGFSIIGGEHRLTNYKSVTTVHRFEKENRIWTVVLESYVVDMPEGNSEDDLRMFADTVVKLNLQKLATVAEAMARNSGDGSGSQVT
# B2: T156R: PYR1 mutant (protein, UniProt O49686 1-191, looked up, variant T156R)
# Abscisic acid receptor PYR1: B1 Abscisic acid receptor PYR1 with L156R
# B3: T156I: PYR1 mutant (protein, UniProt O49686 1-191, looked up, variant T156I)
# Abscisic acid receptor PYR1: B1 Abscisic acid receptor PYR1 with L156I
# B4: T156W: PYR1 mutant (protein, UniProt O49686 1-191, looked up, variant T156W)
# Abscisic acid receptor PYR1: B1 Abscisic acid receptor PYR1 with L156W
# B5: F159E: PYR1 mutant (protein, UniProt O49686 1-191, looked up, variant F159E)
# Abscisic acid receptor PYR1: B1 Abscisic acid receptor PYR1 with L156T, F159E
# B6: F61E: PYR1 mutant (protein, UniProt O49686 1-191, looked up, variant F61E)
# Abscisic acid receptor PYR1: B1 Abscisic acid receptor PYR1 with F61E, L156T
# B7: F61K: PYR1 mutant (protein, listed as Arabidopsis thaliana)
# chain: B1 Abscisic acid receptor PYR1 with F61K, L156T
# B8: F61H: PYR1 mutant (protein, UniProt O49686 1-191, looked up, variant F61H)
# Abscisic acid receptor PYR1: B1 Abscisic acid receptor PYR1 with F61H, L156T
# B9: T156G: PYR1 mutant (protein, UniProt O49686 1-191, looked up, variant T156G)
# Abscisic acid receptor PYR1: B1 Abscisic acid receptor PYR1 with L156G
# B10: F159Y: PYR1 mutant (protein, UniProt O49686 1-191, looked up, variant F159Y)
# Abscisic acid receptor PYR1: B1 Abscisic acid receptor PYR1 with L156T, F159Y
# B11: T156F: PYR1 mutant (protein, UniProt O49686 1-191, looked up, variant T156F)
# Abscisic acid receptor PYR1: B1 Abscisic acid receptor PYR1 with L156F
# B12: M158P: PYR1 mutant (protein, UniProt O49686 1-191, looked up, variant M158P)
# Abscisic acid receptor PYR1: B1 Abscisic acid receptor PYR1 with L156T, M158P
# B13: T156H: PYR1 mutant (protein, UniProt O49686 1-191, looked up, variant T156H)
# Abscisic acid receptor PYR1: B1 Abscisic acid receptor PYR1 with L156H
# B14: F159P: PYR1 mutant (protein, UniProt O49686 1-191, looked up, variant F159P)
# Abscisic acid receptor PYR1: B1 Abscisic acid receptor PYR1 with L156T, F159P
# B15: F61R: PYR1 mutant (protein, UniProt O49686 1-191, looked up, variant F61R)
# Abscisic acid receptor PYR1: B1 Abscisic acid receptor PYR1 with F61R, L156T
# B16: T156M: PYR1 mutant (protein, UniProt O49686 1-191, looked up, variant T156M)
# Abscisic acid receptor PYR1: B1 Abscisic acid receptor PYR1 with L156M
# B17: F61N: PYR1 mutant (protein, UniProt O49686 1-191, looked up, variant F61N)
# Abscisic acid receptor PYR1: B1 Abscisic acid receptor PYR1 with F61N, L156T
# B18: F159W: PYR1 mutant (protein, UniProt O49686 1-191, looked up, variant F159W)
# Abscisic acid receptor PYR1: B1 Abscisic acid receptor PYR1 with L156T, F159W
# B19: F61S: PYR1 mutant (protein, UniProt O49686 1-191, looked up, variant F61S)
# Abscisic acid receptor PYR1: B1 Abscisic acid receptor PYR1 with F61S, L156T
# B20: F159K: PYR1 mutant (protein, UniProt O49686 1-191, looked up, variant F159K)
# Abscisic acid receptor PYR1: B1 Abscisic acid receptor PYR1 with L156T, F159K
# B21: F159Q: PYR1 mutant (protein, UniProt O49686 1-191, looked up, variant F159Q)
# Abscisic acid receptor PYR1: B1 Abscisic acid receptor PYR1 with L156T, F159Q
# B22: F61P: PYR1 mutant (protein, UniProt O49686 1-191, looked up, variant F61P)
# Abscisic acid receptor PYR1: B1 Abscisic acid receptor PYR1 with F61P, L156T
# B23: K170P: PYR1 mutant (protein, UniProt O49686 1-191, looked up, variant K170P)
# Abscisic acid receptor PYR1: B1 Abscisic acid receptor PYR1 with L156T, K170P
# B24: T156E: PYR1 mutant (protein, UniProt O49686 1-191, looked up, variant T156E)
# Abscisic acid receptor PYR1: B1 Abscisic acid receptor PYR1 with L156E
# B25: F61G: PYR1 mutant (protein, UniProt O49686 1-191, looked up, variant F61G)
# Abscisic acid receptor PYR1: B1 Abscisic acid receptor PYR1 with F61G, L156T
# B26: T156K: PYR1 mutant (protein, UniProt O49686 1-191, looked up, variant T156K)
# Abscisic acid receptor PYR1: B1 Abscisic acid receptor PYR1 with L156K
# B27: F159N: PYR1 mutant (protein, UniProt O49686 1-191, looked up, variant F159N)
# Abscisic acid receptor PYR1: B1 Abscisic acid receptor PYR1 with L156T, F159N
# B28: T156D: PYR1 mutant (protein, UniProt O49686 1-191, looked up, variant T156D)
# Abscisic acid receptor PYR1: B1 Abscisic acid receptor PYR1 with L156D
# B29: T162P: PYR1 mutant (protein, UniProt O49686 1-191, looked up, variant T162P)
# Abscisic acid receptor PYR1: B1 Abscisic acid receptor PYR1 with L156T, T162P
# B30: F159S: PYR1 mutant (protein, UniProt O49686 1-191, looked up, variant F159S)
# Abscisic acid receptor PYR1: B1 Abscisic acid receptor PYR1 with L156T, F159S
# B31: T162F: PYR1 mutant (protein, UniProt O49686 1-191, looked up, variant T162F)
# Abscisic acid receptor PYR1: B1 Abscisic acid receptor PYR1 with L156T, T162F
# B32: T156Y: PYR1 mutant (protein, UniProt O49686 1-191, looked up, variant T156Y)
# Abscisic acid receptor PYR1: B1 Abscisic acid receptor PYR1 with L156Y
# B33: F159D: PYR1 mutant (protein, UniProt O49686 1-191, looked up, variant F159D)
# Abscisic acid receptor PYR1: B1 Abscisic acid receptor PYR1 with L156T, F159D
# B34: T156N: PYR1 mutant (protein, UniProt O49686 1-191, looked up, variant T156N)
# Abscisic acid receptor PYR1: B1 Abscisic acid receptor PYR1 with L156N
# B35: T156Q: PYR1 mutant (protein, UniProt O49686 1-191, looked up, variant T156Q)
# Abscisic acid receptor PYR1: B1 Abscisic acid receptor PYR1 with L156Q
# B36: F61Q: PYR1 mutant (protein, UniProt O49686 1-191, looked up, variant F61Q)
# Abscisic acid receptor PYR1: B1 Abscisic acid receptor PYR1 with F61Q, L156T
# B37: F159H: PYR1 mutant (protein, UniProt O49686 1-191, looked up, variant F159H)
# Abscisic acid receptor PYR1: B1 Abscisic acid receptor PYR1 with L156T, F159H
# B38: F61D: PYR1 mutant (protein, UniProt O49686 1-191, looked up, variant F61D)
# Abscisic acid receptor PYR1: B1 Abscisic acid receptor PYR1 with F61D, L156T
# B39: T156P: PYR1 mutant (protein, listed as Arabidopsis thaliana)
# chain: B1 Abscisic acid receptor PYR1 with L156P
# B40: F159G: PYR1 mutant (protein, UniProt O49686 1-191, looked up, variant F159G)
# Abscisic acid receptor PYR1: B1 Abscisic acid receptor PYR1 with L156T, F159G
# B41: F61I: PYR1 mutant (protein, UniProt O49686 1-191, looked up, variant F61I)
# Abscisic acid receptor PYR1: B1 Abscisic acid receptor PYR1 with F61I, L156T
# B42: T162E: PYR1 mutant (protein, UniProt O49686 1-191, looked up, variant T162E)
# Abscisic acid receptor PYR1: B1 Abscisic acid receptor PYR1 with L156T, T162E
# B43: F159R: PYR1 mutant (protein, UniProt O49686 1-191, looked up, variant F159R)
# Abscisic acid receptor PYR1: B1 Abscisic acid receptor PYR1 with L156T, F159R
# Tested on: HAB1
# Assay: Yeast two hybrid of pBD-PYR1 site saturation mutants with pACT-HAB1 on 10 μM ABA, β-galactosidase staining
# Format: cell-based, Arabidopsis
# Set-up: key: x: Mutations in PYR1 that disrupt ABA-induced binding to PYR1 to HAB1
# Details: S. cerevisiae Y190, 10 μM ABA; dead = lack of visible staining in comparison to wild type control
# In short: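 S. cerevisiae Y190 co-expressing GAL4-DNA-binding-domain–PYR1 mutants and GAL4-activation-domain–HAB1 were spotted on SD (-Leu, -Trp) agar with 10 μM (+)-ABA for 2 days at 30° C. Colonies were chloroform-lysed and stained for β-galactosidase. Mutants lacking visible staining relative to wild type were scored as non-binding.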
molecule,measurement,value
B1,Mutations in PYR1 that disrupt ABA-induced binding to PYR1 to HAB1,x
B2,Mutations in PYR1 that disrupt ABA-induced binding to PYR1 to HAB1,x
B3,Mutations in PYR1 that disrupt ABA-induced binding to PYR1 to HAB1,x
B4,Mutations in PYR1 that disrupt ABA-induced binding to PYR1 to HAB1,x
B5,Mutations in PYR1 that disrupt ABA-induced binding to PYR1 to HAB1,x
B6,Mutations in PYR1 that disrupt ABA-induced binding to PYR1 to HAB1,x
B7,Mutations in PYR1 that disrupt ABA-induced binding to PYR1 to HAB1,x
B8,Mutations in PYR1 that disrupt ABA-induced binding to PYR1 to HAB1,x
B9,Mutations in PYR1 that disrupt ABA-induced binding to PYR1 to HAB1,x
B10,Mutations in PYR1 that disrupt ABA-induced binding to PYR1 to HAB1,x
B11,Mutations in PYR1 that disrupt ABA-induced binding to PYR1 to HAB1,x
B12,Mutations in PYR1 that disrupt ABA-induced binding to PYR1 to HAB1,x
B13,Mutations in PYR1 that disrupt ABA-induced binding to PYR1 to HAB1,x
B14,Mutations in PYR1 that disrupt ABA-induced binding to PYR1 to HAB1,x
B15,Mutations in PYR1 that disrupt ABA-induced binding to PYR1 to HAB1,x
B16,Mutations in PYR1 that disrupt ABA-induced binding to PYR1 to HAB1,x
B17,Mutations in PYR1 that disrupt ABA-induced binding to PYR1 to HAB1,x
B18,Mutations in PYR1 that disrupt ABA-induced binding to PYR1 to HAB1,x
B19,Mutations in PYR1 that disrupt ABA-induced binding to PYR1 to HAB1,x
B20,Mutations in PYR1 that disrupt ABA-induced binding to PYR1 to HAB1,x
B21,Mutations in PYR1 that disrupt ABA-induced binding to PYR1 to HAB1,x
B22,Mutations in PYR1 that disrupt ABA-induced binding to PYR1 to HAB1,x
B23,Mutations in PYR1 that disrupt ABA-induced binding to PYR1 to HAB1,x
B24,Mutations in PYR1 that disrupt ABA-induced binding to PYR1 to HAB1,x
B25,Mutations in PYR1 that disrupt ABA-induced binding to PYR1 to HAB1,x
B26,Mutations in PYR1 that disrupt ABA-induced binding to PYR1 to HAB1,x
B27,Mutations in PYR1 that disrupt ABA-induced binding to PYR1 to HAB1,x
B28,Mutations in PYR1 that disrupt ABA-induced binding to PYR1 to HAB1,x
B29,Mutations in PYR1 that disrupt ABA-induced binding to PYR1 to HAB1,x
B30,Mutations in PYR1 that disrupt ABA-induced binding to PYR1 to HAB1,x
B31,Mutations in PYR1 that disrupt ABA-induced binding to PYR1 to HAB1,x
B32,Mutations in PYR1 that disrupt ABA-induced binding to PYR1 to HAB1,x
B33,Mutations in PYR1 that disrupt ABA-induced binding to PYR1 to HAB1,x
B34,Mutations in PYR1 that disrupt ABA-induced binding to PYR1 to HAB1,x
B35,Mutations in PYR1 that disrupt ABA-induced binding to PYR1 to HAB1,x
B36,Mutations in PYR1 that disrupt ABA-induced binding to PYR1 to HAB1,x
B37,Mutations in PYR1 that disrupt ABA-induced binding to PYR1 to HAB1,x
B38,Mutations in PYR1 that disrupt ABA-induced binding to PYR1 to HAB1,x
B39,Mutations in PYR1 that disrupt ABA-induced binding to PYR1 to HAB1,x
B40,Mutations in PYR1 that disrupt ABA-induced binding to PYR1 to HAB1,x
B41,Mutations in PYR1 that disrupt ABA-induced binding to PYR1 to HAB1,x
B42,Mutations in PYR1 that disrupt ABA-induced binding to PYR1 to HAB1,x
B43,Mutations in PYR1 that disrupt ABA-induced binding to PYR1 to HAB1,x
